According to PMC2756588:

How the values were obtained:
Test in all cases: SPOT array
[1] = molecular target: GST; conditions: median of control spots 978
[2] = molecular target: T1, Bzz1-1, P38822; conditions: median of control spots 4446
T1 sequence (P38822 478-572, looked up): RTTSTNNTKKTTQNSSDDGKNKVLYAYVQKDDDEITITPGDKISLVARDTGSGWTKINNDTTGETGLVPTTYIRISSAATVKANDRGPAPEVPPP

[3] = molecular target: T2, Bzz1-2, P38822; conditions: median of control spots 4538
T2 sequence (P38822 568-633, looked up): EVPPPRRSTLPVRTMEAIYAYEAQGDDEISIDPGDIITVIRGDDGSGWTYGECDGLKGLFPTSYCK

[4] = molecular target: Sho1, P40073; conditions: median of control spots 1148
Chain of Sho1, P40073 (P40073 287-367): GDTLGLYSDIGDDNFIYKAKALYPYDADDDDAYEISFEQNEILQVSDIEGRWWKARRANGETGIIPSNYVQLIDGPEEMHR

[5] = molecular target: T3, Hse1, P38753; conditions: median of control spots 1727
T3 sequence (P38753 208-285, looked up): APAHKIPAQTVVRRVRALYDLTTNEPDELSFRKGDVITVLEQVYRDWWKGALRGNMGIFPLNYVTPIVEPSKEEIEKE

[6] = molecular target: T4, Lsb1, P53281; conditions: median of control spots 388
T4 sequence (P53281 45-122, looked up): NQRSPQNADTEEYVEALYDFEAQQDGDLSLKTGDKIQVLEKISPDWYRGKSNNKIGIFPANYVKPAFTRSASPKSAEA

[7] = molecular target: T5, Lsb3, P43603; conditions: median of control spots 406
T5 sequence (P43603 385-451, looked up): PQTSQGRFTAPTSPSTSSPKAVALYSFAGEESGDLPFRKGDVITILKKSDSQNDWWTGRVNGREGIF

[8] = molecular target: T6, Pin3, Q06449; conditions: median of control spots 2171
T6 sequence (Q06449 53-122, looked up): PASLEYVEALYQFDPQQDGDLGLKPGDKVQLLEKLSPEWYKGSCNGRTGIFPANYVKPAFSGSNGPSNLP

[9] = molecular target: Rvs167, P39743; conditions: median of control spots 2707
Chain of Rvs167, P39743 (P39743 419-482): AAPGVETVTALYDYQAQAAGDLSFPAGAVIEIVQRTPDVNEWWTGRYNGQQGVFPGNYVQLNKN

[10] = molecular target: T7, Lsb4, P32793; conditions: median of control spots 397
T7 sequence (P32793 402-468, looked up): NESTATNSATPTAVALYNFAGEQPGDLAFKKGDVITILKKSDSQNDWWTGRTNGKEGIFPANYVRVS

[11] = molecular target: T8, Fus1, P11710; conditions: median of control spots 1200
T8 sequence (P11710 432-512, looked up): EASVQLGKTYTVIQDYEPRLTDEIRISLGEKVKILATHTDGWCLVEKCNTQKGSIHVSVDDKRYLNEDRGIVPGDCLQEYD

[12] = molecular target: T9, Sla1-3, P32790; conditions: median of control spots 5475
T9 sequence (P32790 344-424, looked up): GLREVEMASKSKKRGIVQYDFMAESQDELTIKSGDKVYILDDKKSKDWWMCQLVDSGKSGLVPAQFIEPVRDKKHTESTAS

[13] = molecular target: T10, Myo5, Q04439; conditions: median of control spots 471
T10 sequence (Q04439 1072-1160, looked up): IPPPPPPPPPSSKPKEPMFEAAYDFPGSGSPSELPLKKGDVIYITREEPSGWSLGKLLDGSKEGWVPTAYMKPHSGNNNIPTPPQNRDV

[14] = molecular target: T11, Boi1, P38041; conditions: median of control spots 1162
T11 sequence (P38041 1-86, looked up): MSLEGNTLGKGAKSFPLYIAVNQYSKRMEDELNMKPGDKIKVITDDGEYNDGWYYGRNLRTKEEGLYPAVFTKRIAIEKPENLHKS

[15] = molecular target: T12, Bud14, P27637; conditions: median of control spots 956
T12 sequence (P27637 247-328, looked up): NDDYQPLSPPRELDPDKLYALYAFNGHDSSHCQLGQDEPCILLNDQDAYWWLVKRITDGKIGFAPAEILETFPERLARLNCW

[16] = molecular target: Bem1-2, P29366; conditions: median of control spots 4347
Chain of Bem1-2, P29366 (P29366 139-227): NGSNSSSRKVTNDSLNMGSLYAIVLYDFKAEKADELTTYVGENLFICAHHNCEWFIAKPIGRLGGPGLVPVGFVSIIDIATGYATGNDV

[17] = molecular target: T13, Nbp2, Q12163; conditions: median of control spots 357
T13 sequence (Q12163 103-180, looked up): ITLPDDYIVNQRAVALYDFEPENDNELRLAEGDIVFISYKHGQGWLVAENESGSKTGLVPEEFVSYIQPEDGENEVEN

[18] = molecular target: Myo3, P36006; conditions: median of control spots 468
[19] = molecular target: T14, Abp1, P15891; conditions: median of control spots 935
T14 sequence (P15891 535-592, looked up): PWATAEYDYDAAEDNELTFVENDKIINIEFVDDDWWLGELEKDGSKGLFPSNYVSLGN

[20] = molecular target: T15, Hof1, Q05080; conditions: median of control spots 4086
T15 sequence (Q05080 590-669, looked up): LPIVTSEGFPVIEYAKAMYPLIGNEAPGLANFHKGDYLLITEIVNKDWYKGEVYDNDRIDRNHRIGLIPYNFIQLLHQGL

[21] = molecular target: T16, Boi2, P39969; conditions: median of control spots 1161
T16 sequence (P39969 32-116, looked up): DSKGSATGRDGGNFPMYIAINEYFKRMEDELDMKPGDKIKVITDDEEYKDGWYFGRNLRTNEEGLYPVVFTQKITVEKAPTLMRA

[22] = molecular target: T17, Cdc25, P04821; conditions: median of control spots 969
T17 sequence (P04821 50-136, looked up): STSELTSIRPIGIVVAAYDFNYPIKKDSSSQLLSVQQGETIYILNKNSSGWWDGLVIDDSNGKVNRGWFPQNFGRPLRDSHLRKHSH

[23] = molecular target: T18, Sla1-2, P32790; conditions: median of control spots 712
T18 sequence (P32790 60-140, looked up): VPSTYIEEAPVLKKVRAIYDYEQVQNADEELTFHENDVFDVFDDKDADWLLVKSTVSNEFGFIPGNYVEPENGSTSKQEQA

[24] = molecular target: Bem1-1, P29366; conditions: median of control spots 4282
Chain of Bem1-1, P29366 (P29366 55-141): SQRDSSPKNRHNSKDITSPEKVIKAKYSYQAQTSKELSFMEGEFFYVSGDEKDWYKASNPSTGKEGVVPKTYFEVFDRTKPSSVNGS

[25] = molecular target: T19, Pex13, P80667; conditions: median of control spots 1341
T19 sequence (P80667 295-386, looked up): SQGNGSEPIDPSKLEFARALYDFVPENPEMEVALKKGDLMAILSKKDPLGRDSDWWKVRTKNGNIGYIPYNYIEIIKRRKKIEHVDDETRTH

[26] = molecular target: T20, Cyk3, Q07533; conditions: median of control spots 1451
T20 sequence (Q07533 1-83, looked up): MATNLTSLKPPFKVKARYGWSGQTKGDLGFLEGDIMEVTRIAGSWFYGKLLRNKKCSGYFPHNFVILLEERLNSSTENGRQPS

[27] = molecular target: T21, Bbc1, P47068; conditions: median of control spots 796
T21 sequence (P47068 1-78, looked up): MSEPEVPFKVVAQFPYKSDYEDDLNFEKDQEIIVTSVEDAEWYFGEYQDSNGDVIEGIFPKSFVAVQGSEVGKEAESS

FPPKRKPLLRPQRSD was tested, and the SPOT intensity [1] was 2, the SPOT intensity [2] was 0 and the SPOT intensity [3] was 28. It also gave an SPOT intensity [4] of 154, an SPOT intensity [5] of 51 and an SPOT intensity [6] of 69. It also gave an SPOT intensity [7] of 48, an SPOT intensity [8] of 19 and an SPOT intensity [9] of 25. The SPOT intensity [10] was 81, the SPOT intensity [11] was 6 and the SPOT intensity [12] was 25. It also gave an SPOT intensity [13] of 0, an SPOT intensity [14] of 6 and an SPOT intensity [15] of 19. It also gave an SPOT intensity [16] of 19, an SPOT intensity [17] of 9 and an SPOT intensity [18] of 30. The SPOT intensity [19] was 232, the SPOT intensity [20] was 4 and the SPOT intensity [21] was 1. The SPOT intensity [22] was 27, the SPOT intensity [23] was 1 and the SPOT intensity [24] was 1. It also gave an SPOT intensity [25] of 16, an SPOT intensity [26] of 3 and an SPOT intensity [27] of 266.

Work on TKPTPPPKPSHLKPK yielded an SPOT intensity [1] of 0, an SPOT intensity [2] of 0 and an SPOT intensity [3] of 0. It also gave an SPOT intensity [4] of 199, an SPOT intensity [5] of 11 and an SPOT intensity [6] of 0. For the same binder, the SPOT intensity [7] was 75, the SPOT intensity [8] was 0 and the SPOT intensity [9] was 0. The SPOT intensity [10] was 5, the SPOT intensity [11] was 2 and the SPOT intensity [12] was 1. It also gave an SPOT intensity [13] of 0, an SPOT intensity [14] of 0 and an SPOT intensity [15] of 1. It also gave an SPOT intensity [16] of 0, an SPOT intensity [17] of 1 and an SPOT intensity [18] of 0. The SPOT intensity [19] was 631, the SPOT intensity [20] was 3 and the SPOT intensity [21] was 0. It also gave an SPOT intensity [22] of 2, an SPOT intensity [23] of 0 and an SPOT intensity [24] of 0. For the same binder, the SPOT intensity [25] was 266, the SPOT intensity [26] was 1 and the SPOT intensity [27] was 1.

Work on DKKTKPTPPPKPSHL yielded an SPOT intensity [1] of 0, an SPOT intensity [2] of 1 and an SPOT intensity [3] of 0. For the same binder, the SPOT intensity [4] was 115, the SPOT intensity [5] was 4 and the SPOT intensity [6] was 0. For the same binder, the SPOT intensity [7] was 24, the SPOT intensity [8] was 0 and the SPOT intensity [9] was 0. For the same binder, the SPOT intensity [10] was 0, the SPOT intensity [11] was 0 and the SPOT intensity [12] was 0. It also gave an SPOT intensity [13] of 0, an SPOT intensity [14] of 3 and an SPOT intensity [15] of 1. For the same binder, the SPOT intensity [16] was 1, the SPOT intensity [17] was 0 and the SPOT intensity [18] was 0. The SPOT intensity [19] was 410, the SPOT intensity [20] was 3 and the SPOT intensity [21] was 2. It also gave an SPOT intensity [22] of 1, an SPOT intensity [23] of 1 and an SPOT intensity [24] of 0. For the same binder, the SPOT intensity [25] was 4, the SPOT intensity [26] was 0 and the SPOT intensity [27] was 0.

Binder AKDLIVPRRPEWNEG has an SPOT intensity [1] of 446, an SPOT intensity [2] of 2630 and an SPOT intensity [3] of 2660. For the same binder, the SPOT intensity [4] was 1570, the SPOT intensity [5] was 1130 and the SPOT intensity [6] was 636. It also gave an SPOT intensity [7] of 591, an SPOT intensity [8] of 694 and an SPOT intensity [9] of 1950. For the same binder, the SPOT intensity [10] was 768, the SPOT intensity [11] was 1230 and the SPOT intensity [12] was 2730. The SPOT intensity [13] was 624, the SPOT intensity [14] was 1450 and the SPOT intensity [15] was 480. The SPOT intensity [16] was 5580, the SPOT intensity [17] was 1390 and the SPOT intensity [18] was 461. For the same binder, the SPOT intensity [19] was 766, the SPOT intensity [20] was 5260 and the SPOT intensity [21] was 1640. It also gave an SPOT intensity [22] of 347, an SPOT intensity [23] of 550 and an SPOT intensity [24] of 3920. It also gave an SPOT intensity [25] of 567, an SPOT intensity [26] of 2720 and an SPOT intensity [27] of 1050.
